The values below come from patent US20140255415A1 (Novartis, published 2014).

In test [1] the target is T1, cynomolgus monkey LINGO-1 expressed on CHO-K1 cells (CHO-K1-cmLINGO-1) (cynomolgus monkey, UniProt Q9N008 34-614).
T1 construct: range 34-614; also called Cynomolgus LINGO-1; not shown: 2 amino acid residue linker
T1 sequence (looked up): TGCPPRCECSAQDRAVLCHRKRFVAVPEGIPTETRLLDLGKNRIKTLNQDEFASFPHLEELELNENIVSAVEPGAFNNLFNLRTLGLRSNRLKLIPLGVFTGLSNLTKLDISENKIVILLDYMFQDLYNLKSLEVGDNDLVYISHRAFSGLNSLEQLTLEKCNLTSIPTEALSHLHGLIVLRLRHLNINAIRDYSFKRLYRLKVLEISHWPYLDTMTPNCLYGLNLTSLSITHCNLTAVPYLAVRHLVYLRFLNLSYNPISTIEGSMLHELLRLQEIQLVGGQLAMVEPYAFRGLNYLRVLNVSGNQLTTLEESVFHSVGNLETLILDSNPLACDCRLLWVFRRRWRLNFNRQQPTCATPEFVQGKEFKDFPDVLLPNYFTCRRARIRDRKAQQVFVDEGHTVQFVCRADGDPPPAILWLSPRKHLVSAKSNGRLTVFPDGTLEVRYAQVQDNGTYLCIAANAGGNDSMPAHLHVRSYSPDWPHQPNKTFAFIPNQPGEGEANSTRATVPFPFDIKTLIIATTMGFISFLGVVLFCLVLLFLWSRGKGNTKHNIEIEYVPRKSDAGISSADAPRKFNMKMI
Briefly: apparent KD, FACS saturation binding on CHO-K1-cmLINGO-1 cells, Fab format. Here is the method: Cell based affinity of anti-LINGO-1 specific antibodies is determined by FACS saturation binding experiments. […] Otherwise the staining procedure is done identical to the FACS staining procedure described above.
In detail, CHO-K1-hLINGO-1, CHO-K1-cmLINGO-1 or CHO-K1-rLINGO-1 are detached from culture flasks by versene, washed with FACS buffer and resuspended in FACS buffer. Purified anti-LINGO-1 Fabs are serially diluted in FACS buffer and spread into round bottom 96-well microtiter plates (NUNC™, Wiesbaden, Germany). For each concentration, duplicate wells are incubated with 1.25×10⁴ cells for 30-60 min on ice in a total volume of 100 μl.

Test [2] addresses T2, human NgR-Fc fusion protein (R&D Systems) (human, UniProt Q9BZR6 27-447, limits assumed).
T2 construct: Commercial protein; also called captured human NgR-Fc; not shown: Fc part of the commercial fusion protein; not described
T2 sequence (looked up): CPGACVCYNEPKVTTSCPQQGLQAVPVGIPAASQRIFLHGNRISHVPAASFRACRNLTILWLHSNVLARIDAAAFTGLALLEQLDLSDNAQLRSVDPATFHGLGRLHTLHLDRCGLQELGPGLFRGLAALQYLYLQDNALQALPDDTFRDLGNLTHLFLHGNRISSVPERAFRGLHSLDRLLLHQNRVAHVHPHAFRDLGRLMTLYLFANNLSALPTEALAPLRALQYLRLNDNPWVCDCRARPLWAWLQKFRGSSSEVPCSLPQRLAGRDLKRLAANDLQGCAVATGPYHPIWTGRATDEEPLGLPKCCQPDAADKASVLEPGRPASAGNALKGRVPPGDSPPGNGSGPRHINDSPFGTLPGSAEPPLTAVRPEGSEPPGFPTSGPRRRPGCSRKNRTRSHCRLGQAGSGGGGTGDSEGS
Briefly: ELISA, captured Fc fusion protein. In general terms: An ELISA detects its analyte on a solid surface through an enzyme-linked reagent.

For test [3], the target named is T3, human LINGO-1-ΔLRR-Fc (Igleader-hsLINGO-1-ΔLRR-Fc) (human, UniProt Q96FE5 40-556).
T3 construct: Heterologous secretion signal left out; also called human LINGO-1 lacking the LRR domain
T3 sequence: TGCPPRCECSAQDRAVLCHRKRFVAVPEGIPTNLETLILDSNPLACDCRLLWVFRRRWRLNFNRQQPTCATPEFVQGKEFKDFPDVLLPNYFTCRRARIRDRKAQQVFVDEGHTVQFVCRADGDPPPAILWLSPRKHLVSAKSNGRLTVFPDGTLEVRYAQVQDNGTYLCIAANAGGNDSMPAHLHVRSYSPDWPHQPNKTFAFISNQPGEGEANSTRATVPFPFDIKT
Briefly: ELISA, captured Fc fusion protein.

The target in test [4] is T2, human NgR-Fc fusion protein (R&D …). Briefly: ELISA, Fc fusion captured via goat anti-human IgG Fc, Fab detected with AP-conjugated secondary and AttoPhos.
Test [5] concerns the target T3, human LINGO-1-ΔLRR-Fc …. The description is as above.
Test [6] concerns the target T4, human LINGO-1-Fc fusion protein (natleader-hsLINGO-1-Fc) (human, UniProt Q96FE5 42-556).
T4 construct: also called human recombinant LINGO-1-Fc; captured human LINGO-1-Fc; not shown: protein lette
T4 sequence: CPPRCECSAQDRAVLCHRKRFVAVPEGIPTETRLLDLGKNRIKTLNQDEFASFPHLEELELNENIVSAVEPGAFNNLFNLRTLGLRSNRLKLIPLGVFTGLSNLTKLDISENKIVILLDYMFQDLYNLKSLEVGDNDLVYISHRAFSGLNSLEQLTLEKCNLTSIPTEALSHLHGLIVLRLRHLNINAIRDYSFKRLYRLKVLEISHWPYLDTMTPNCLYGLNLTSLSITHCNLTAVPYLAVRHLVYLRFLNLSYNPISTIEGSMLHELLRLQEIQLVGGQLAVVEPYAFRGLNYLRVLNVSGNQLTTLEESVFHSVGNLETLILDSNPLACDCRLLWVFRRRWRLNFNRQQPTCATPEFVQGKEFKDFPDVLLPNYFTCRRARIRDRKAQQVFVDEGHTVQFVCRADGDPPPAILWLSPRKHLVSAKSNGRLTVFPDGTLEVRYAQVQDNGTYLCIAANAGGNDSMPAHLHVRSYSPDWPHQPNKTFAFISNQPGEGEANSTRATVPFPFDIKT
The description is as above.

The target of a further test is Unrelated Fc. Described as above.

B1: anti-LINGO-1 Fab 4785 (Fab, V domains shown)
VH: QVQLQQSGPGLVKPSQTLSLTCAISGDSVSDNSAAWSWIRQSPGRGLEWLGLIYLRSKWDNDYAVSVKSRITINPDTSKNQFSLQLNSVTPEDTAVYYCARTGRADEFDVWGQGTLVTVSS
VL: DIVLTQPPSVSGAPGQRVTISCSGSSSNIGNNYVSWYQQLPGTAPKLLISRNSKRPSGVPDRFSGSKSGTSASLAITGLQSEDEADYYCSTYDTFSIVFGGGTKLTVLG
For the molecule B1, the Kd in test [1] is 0.26 nM. Besides, the binding result in test [2] and in test [3] was “no binding” each time. Moreover, the “relative fluorescence units (RFU)” value was 7 RFU in test [4], 8 RFU in test [5], 113 RFU in test [6] and 6 RFU with Unrelated Fc.
